Measurements taken from paper PMC3080406, “Efficient Conversion of Phenylpyruvic Acid to Phenyllactic Acid by Using Whole Cells of Bacillus coagulans SDM” (PLoS ONE, 2011).

B1: L-nLDH (Heyndrickxia coagulans) (protein)
chain: MKKVNRIAVVGTGAVGTSYCYAMINQGVAEELVLIDINEAKAEGEAMDLNHGLPFAPTPTRVWKGDYSDCGTADLVVITAGSPQKPGETRLDLVSKNAKIFKGMIKSIMDSGFNGIFLVASNPVDILTYVTWKESGLPKEHVIGSGTVLDSARLRNSLSAQFGIDPRNVHAAIIGEHGDTELPVWSHTNIGYDTIESYLQKGIIDEKTLDDIFVNTRDAAYHIIERKGATFYGIGMSLTRITRAILNNENSVLTVSAFLEGQYGNSDVYVGVPAIINRQGIREVVEIKLNEKEQEQFNHSVKVLKETMAPVL
notes: full-length ldhL in pET-28a, N- and C-terminal His tags kept, expressed in E. coli BL21(DE3), HisTrap purified
B2: D-nLDH (Heyndrickxia coagulans) (protein)
chain: MRKVVAYETRADEFPLFQKFARKFDLDIKYIDDVLTPETAMEAKGAEAVTILGNYPVGSGTFKALRDVGVKYIGLRTAGNNHIDQEAAKAYGIRFSNVAYSPYCVADFATMLILMCVRKAKQILSRVEAQDFSVEGIQGREMRNLTIGIIGAGRIGSIVAKNLSGFGCNLIAHDTVERDELRGILKYVSLDELLEESDVITIHTPLFESTYHMINQERIAKIKDGVCIINCSRGAEVDTYALIAGIEAGKAGAAGIDVLEDEEGIFHYDRRTDILDHRQLAILRSFPNVIVTPHTAFYPNQAVSDMAEMALTSLVSFVETGKSRWEIKS
notes: full-length ldhD in pET-28a, N- and C-terminal His tags kept, expressed in E. coli BL21(DE3), HisTrap purified

How the values were obtained:
Test in all cases: NADH oxidation assay
Format in all cases: biochemical, Heyndrickxia coagulans
[1] = substrate: O=C(O)C(=O)Cc1ccccc1; conditions: 0.2 mM NADH, 5 mM FDP (fructose 1,6-bisphosphate), 50 mM Tris-HCl pH 7.0, 50°C
Description: (§1) NADH oxidation assay on L-nLDH

[2] = substrate: CC(=O)C(=O)O; conditions: 0.2 mM NADH, 5 mM FDP (fructose 1,6-bisphosphate), 50 mM Tris-HCl pH 7.0, 50°C
Description: as §1

[3] = substrate: O=C(O)C(=O)Cc1ccccc1; conditions: 0.2 mM NADH, 50 mM Tris-HCl pH 7.0, 50°C, no FDP
Description: (§2) NADH oxidation assay on D-nLDH

[4] = substrate: CC(=O)C(=O)O; conditions: 0.2 mM NADH, 50 mM Tris-HCl pH 7.0, 50°C, no FDP
Description: as §2

Protein	Km [1]	Vmax [1]	kcat [1]	kcat/Km [1]	Km [2]	Vmax [2]	kcat [2]	kcat/Km [2]	Km [3]	Vmax [3]	kcat [3]	kcat/Km [3]	Km [4]	Vmax [4]	kcat [4]	kcat/Km [4]
B1	4.3 mM	72.6 µmol/min/mg	47.2 s⁻¹	11000 M⁻¹ s⁻¹	2.6 mM	1800 µmol/min/mg	1170 s⁻¹	450000 M⁻¹ s⁻¹								
B2									4.4 mM	23.5 µmol/min/mg	16.5 s⁻¹	3900 M⁻¹ s⁻¹	2.2 mM	33.7 µmol/min/mg	23.6 s⁻¹	11000 M⁻¹ s⁻¹
